Data set [1] addresses T1, RNase H1 D252N (Drosophila melanogaster, UniProt A1Z769 17-333, D252N).
T1 sequence: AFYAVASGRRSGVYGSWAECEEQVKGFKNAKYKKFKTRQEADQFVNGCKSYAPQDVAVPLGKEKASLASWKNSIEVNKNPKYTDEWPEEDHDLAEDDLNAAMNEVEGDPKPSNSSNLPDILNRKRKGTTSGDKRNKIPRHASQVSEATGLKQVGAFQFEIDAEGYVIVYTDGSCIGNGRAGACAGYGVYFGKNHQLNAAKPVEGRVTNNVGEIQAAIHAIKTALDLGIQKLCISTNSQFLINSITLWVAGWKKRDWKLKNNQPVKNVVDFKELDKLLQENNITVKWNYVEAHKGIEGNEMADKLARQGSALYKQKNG
The data set can be described thus: EMSA; 1 or 10 uM protein; BLI: 30 mM Tris-HCl pH 8.0, 100 mM KCl, 10% glycerol, 10 mM EDTA, 2 mM DTT, 400 ug/ml BSA, 30 C; EMSA: 25 mM Tris-HCl pH 8.0, 25 mM KCl, 1 mM DTT, 10 mM EDTA, 20 ug/ml BSA, room temperature, 30 min. To be noted: protein: recombinant; tags: C-terminal 6xHis (+2 vector residues); label: 5' 32P; single strand.

Data set [2] has as its target T2, RNase H1 ΔII/III D252N (Drosophila melanogaster, UniProt A1Z769 17-333, D252N;del66-141).
T2 sequence: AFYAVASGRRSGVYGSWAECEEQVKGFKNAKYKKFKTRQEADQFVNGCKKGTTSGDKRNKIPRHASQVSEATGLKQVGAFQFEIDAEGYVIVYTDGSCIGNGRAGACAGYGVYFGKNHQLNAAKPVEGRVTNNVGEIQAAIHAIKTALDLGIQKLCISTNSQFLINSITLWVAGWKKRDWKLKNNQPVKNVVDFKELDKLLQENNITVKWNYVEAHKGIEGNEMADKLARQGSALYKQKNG
Put plainly: EMSA; BLI: 30 mM Tris-HCl pH 8.0, 100 mM KCl, 10% glycerol, 10 mM EDTA, 2 mM DTT, 400 ug/ml BSA, 30 C; EMSA: 25 mM Tris-HCl pH 8.0, 25 mM KCl, 1 mM DTT, 10 mM EDTA, 20 ug/ml BSA, room temperature, 30 min. To be noted: protein: recombinant, tags: C-terminal 6xHis, blunt.

Data set [3] concerns the target T1, RNase H1 D252N. Described as above. To be noted: protein: recombinant, tags: C-terminal 6xHis (+2 vector residues), blunt.
The target in data set [4] is T3, RNase H1 ΔIII-V (Drosophila melanogaster, UniProt A1Z769 17-87).
T3 sequence: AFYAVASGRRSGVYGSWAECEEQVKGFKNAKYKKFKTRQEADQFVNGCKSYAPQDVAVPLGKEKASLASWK
Put plainly: BLI; BLI: 30 mM Tris-HCl pH 8.0, 100 mM KCl, 10% glycerol, 10 mM EDTA, 2 mM DTT, 400 ug/ml BSA, 30 C; EMSA: 25 mM Tris-HCl pH 8.0, 25 mM KCl, 1 mM DTT, 10 mM EDTA, 20 ug/ml BSA, room temperature, 30 min. The note with it: protein: recombinant, tags: C-terminal 6xHis, blunt. (BLI is a label-free optical method that tracks binding on a fibre tip over time.)

In data set [5] the target is T4, RNase H1 ΔII-V (Drosophila melanogaster, UniProt A1Z769 17-65).
T4 chain: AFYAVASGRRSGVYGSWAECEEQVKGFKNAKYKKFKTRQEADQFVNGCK
The data set is described as above. The note with it: protein: recombinant, tags: C-terminal 6xHis, blunt.

For data set [6], the target named is T5, RNase H1 ΔIV/V (Drosophila melanogaster, UniProt A1Z769 17-142).
T5 sequence: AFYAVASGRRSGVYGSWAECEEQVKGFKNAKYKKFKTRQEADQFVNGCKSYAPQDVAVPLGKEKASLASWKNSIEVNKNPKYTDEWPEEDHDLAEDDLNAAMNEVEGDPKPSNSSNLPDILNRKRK
Described as above. To be noted: protein: recombinant, tags: C-terminal 6xHis, blunt.

Data set [7] deals with Dm RNase H1 (amino acids 17-333), bacterially expressed (Drosophila melanogaster).
Data set [8] has as its target T6, RNase H1 ΔI-III D252N (Drosophila melanogaster, UniProt A1Z769 142-333, D252N).
T6 sequence: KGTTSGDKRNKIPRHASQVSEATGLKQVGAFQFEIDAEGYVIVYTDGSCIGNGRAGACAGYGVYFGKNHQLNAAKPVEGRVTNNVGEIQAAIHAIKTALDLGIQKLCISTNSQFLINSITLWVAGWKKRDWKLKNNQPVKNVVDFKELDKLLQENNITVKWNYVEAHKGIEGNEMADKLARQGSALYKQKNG
Put plainly: EMSA; no supershift; BLI: 30 mM Tris-HCl pH 8.0, 100 mM KCl, 10% glycerol, 10 mM EDTA, 2 mM DTT, 400 ug/ml BSA, 30 C; EMSA: 25 mM Tris-HCl pH 8.0, 25 mM KCl, 1 mM DTT, 10 mM EDTA, 20 ug/ml BSA, room temperature, 30 min. To be noted: protein: recombinant; tags: C-terminal 6xHis; blunt. For orientation: Mobility shift assays separate free from complexed probe on a gel.

Data set [9] addresses T7, RNase H1 ΔI/II D252N (Drosophila melanogaster, UniProt A1Z769 87-333, D252N).
T7 sequence: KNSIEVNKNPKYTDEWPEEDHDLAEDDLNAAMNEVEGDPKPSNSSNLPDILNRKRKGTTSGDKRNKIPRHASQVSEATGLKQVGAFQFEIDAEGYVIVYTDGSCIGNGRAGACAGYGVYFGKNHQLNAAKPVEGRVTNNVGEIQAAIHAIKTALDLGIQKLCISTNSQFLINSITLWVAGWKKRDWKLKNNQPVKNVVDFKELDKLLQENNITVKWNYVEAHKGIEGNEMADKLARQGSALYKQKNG
The data set is described as above. The note with it: protein: recombinant; tags: C-terminal 6xHis; blunt.

Data set [10] concerns the target T1, RNase H1 D252N. Put plainly: EMSA; second shift at high protein; BLI: 30 mM Tris-HCl pH 8.0, 100 mM KCl, 10% glycerol, 10 mM EDTA, 2 mM DTT, 400 ug/ml BSA, 30 C; EMSA: 25 mM Tris-HCl pH 8.0, 25 mM KCl, 1 mM DTT, 10 mM EDTA, 20 ug/ml BSA, room temperature, 30 min. The note with it: protein: recombinant; tags: C-terminal 6xHis (+2 vector residues); blunt.
The target in data set [11] is T3, RNase H1 ΔIII-V. Put plainly: EMSA; supershift at high protein; BLI: 30 mM Tris-HCl pH 8.0, 100 mM KCl, 10% glycerol, 10 mM EDTA, 2 mM DTT, 400 ug/ml BSA, 30 C; EMSA: 25 mM Tris-HCl pH 8.0, 25 mM KCl, 1 mM DTT, 10 mM EDTA, 20 ug/ml BSA, room temperature, 30 min. The note with it: protein: recombinant; tags: C-terminal 6xHis; blunt.
Data set [12] concerns the target T4, RNase H1 ΔII-V. The description is as above. The note with it: protein: recombinant; tags: C-terminal 6xHis; blunt.
Data set [13] deals with T5, RNase H1 ΔIV/V. Described as above. To be noted: protein: recombinant; tags: C-terminal 6xHis; blunt.

Turning to CGCGAAGACUAACUAUAGCGUGCCCUACUU (ssRNA) [30-nt ssRNA], the binding result in data set [1] is listed as “no binding”.

B1: 30-bp dsRNA (dsRNA)
RNA 1: AAGUAGGGCACGCUAUAGUUAGUCUUCGCG
RNA 2: CGCGAAGACUAACUAUAGCGUGCCCUACUU
B1: the binding result in [2] (label: 5' biotin on S2 for BLI) is “binds”; in data set [3] (label: 5' biotin on S2 for BLI), “binds”; in data set [4] (label: 5' biotin on S2 for BLI), “no binding”; in data set [5] (label: 5' biotin on S2 for BLI) it was “no binding”; in data set [6] (label: 5' biotin on S2 for BLI), “no binding”.

B2: Drosophila mitochondrial single-stranded DNA-binding protein, purified (natural protein)
chain: ATTTTAAAPAKVEKTVNTVTILGRVGADPQLRGSQEHPVVTFSVATHTNYKYENGDWAQRTDWHRVVVFKPNLRDTVLEYLKKGQRTMVQGKITYGEITDQQGNQKTSTSIIADDVLFFRDANN
B2: in data set [7], the nuclease activity of 0.1 nM Dm RNase H1 on radiolabelled 30-bp RNA/DNA hybrid pre-incubated with mtSSB (0-500 nM), without ssDNA; densitometry is 55%.

B3: 30-bp RNA/DNA hybrid (EMSA) (DNA:RNA)
RNA: CGCGAAGACUAACUAUAGCGUGCCCUACUU
DNA: AAGTAGGGCACGCTATAGTTAGTCTTCGCG
Consider B3, for which the binding result in data set [8], in [9], in [10], in data set [2], in data set [11] and in [12] was “binds” each time. The binding result in data set [13] is recorded as “binds”.

B4: 30-bp dsDNA (dsDNA)
DNA 1: AAGTAGGGCACGCTATAGTTAGTCTTCGCG
DNA 2: CGCGAAGACTAACTATAGCGTGCCCTACTT
As for B4, the binding result in data set [2] (label: 5' biotin on S3 for BLI) is listed as “binds”; in data set [3] (label: 5' biotin on S3 for BLI), “binds”; in [4] (label: 5' biotin on S3 for BLI), “no binding”; in data set [5] (label: 5' biotin on S3 for BLI), “no binding”; in [6] (label: 5' biotin on S3 for BLI) it was “no binding”.

Turning to AAGTAGGGCACGCTATAGTTAGTCTTCGCG (ssDNA) [30-nt ssDNA], the binding result in data set [1] is reported as “no binding”.

The values above are taken from article PMC7657459, “A second hybrid-binding domain modulates the activity of Drosophila ribonuclease H1”.
